Experimental data: the supplement of paper PMC10567573

B1: PKD2L1 (parent)
chain: YSGGGYYLDLPGSRQGSAEALRAL

Variants of: B1
Test: protein stability index of a GFP-peptide fusion (GPS, HEK-293T) (PSI 1-6); higher = more stable
Conditions: c terminus: a fixed tail appended
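Further: lentivirally expressed fusions sorted by FACS into six bins by GFP to DsRed ratio, PSI derived from sequencing read proportions per bin multiplied by bin number.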

Q: For YSGGGYYLDSPGSRQGSAEALRAL, which protein stability index is on record?
A: 1.46

Q: With YSGGGYYLDIPGSRQGSAEALRAL as the variant, how does the protein stability index read?
A: 2.33

Q: Which protein stability index does the source give for YSGGGYYLDFPGSRQGSAEALRAL here?
A: 2.09

Q: Which protein stability index does the source give for YSGGGYYLDPPGSRQGSAEALRAL here?
A: 1.9

Q: For YSGGGYYLDDPGSRQGSAEALRAL, which protein stability index is on record?
A: 2.02

Q: Which protein stability index does the source give for YSGGGYYLDHPGSRQGSAEALRAL here?
A: 1.58

Q: For YSGGGYYLDRPGSRQGSAEALRAL, which protein stability index is on record?
A: 2.97

Q: With YSGGGYYLDKPGSRQGSAEALRAL as the variant, how does the protein stability index read?
A: 1.73

Q: With YSGGGYYLDMPGSRQGSAEALRAL as the variant, how does the protein stability index read?
A: 1.66

Q: For YSGGGYYLDVPGSRQGSAEALRAL, which protein stability index is on record?
A: 2.17

Q: For YSGGGYYLDCPGSRQGSAEALRAL, which protein stability index is on record?
A: 2.31

Q: For YSGGGYYLDWPGSRQGSAEALRAL, which protein stability index is on record?
A: 1.14

Q: Which protein stability index does the source give for YSGGGYYLDAPGSRQGSAEALRAL here?
A: 2.27

Q: With YSGGGYYLDEPGSRQGSAEALRAL as the variant, how does the protein stability index read?
A: 2.69

Q: With YSGGGYYLDQPGSRQGSAEALRAL as the variant, how does the protein stability index read?
A: 1.27

Q: With YSGGGYYLDGPGSRQGSAEALRAL as the variant, how does the protein stability index read?
A: 1.56

Q: Which protein stability index does the source give for YSGGGYYLDTPGSRQGSAEALRAL here?
A: 2.35

Q: For YSGGGYYLDNPGSRQGSAEALRAL, which protein stability index is on record?
A: 1.6

Q: With YSGGGYYLDYPGSRQGSAEALRAL as the variant, how does the protein stability index read?
A: 1.81

Q: With YSGGGYYLDLPGVRQGSAEALRAL as the variant, how does the protein stability index read?
A: 2.3

Q: Which protein stability index does the source give for YSGGGYYLDLPGYRQGSAEALRAL here?
A: 1.96

Q: Which protein stability index does the source give for YSGGGYYLDLPGNRQGSAEALRAL here?
A: 1.38

Q: For YSGGGYYLDLPGHRQGSAEALRAL, which protein stability index is on record?
A: 1.58

Q: Which protein stability index does the source give for YSGGGYYLDLPGWRQGSAEALRAL here?
A: 1.78

Q: With YSGGGYYLDLPGCRQGSAEALRAL as the variant, how does the protein stability index read?
A: 2.23

Q: With YSGGGYYLDLPGRRQGSAEALRAL as the variant, how does the protein stability index read?
A: 2.38

Q: With YSGGGYYLDLPGPRQGSAEALRAL as the variant, how does the protein stability index read?
A: 1.85

Q: Which protein stability index does the source give for YSGGGYYLDLPGQRQGSAEALRAL here?
A: 2.28

Q: With YSGGGYYLDLPGDRQGSAEALRAL as the variant, how does the protein stability index read?
A: 1.12

Q: Which protein stability index does the source give for YSGGGYYLDLPGARQGSAEALRAL here?
A: 1.45

Q: For YSGGGYYLDLPGLRQGSAEALRAL, which protein stability index is on record?
A: 1.5

Q: Which protein stability index does the source give for YSGGGYYLDLPGFRQGSAEALRAL here?
A: 1.92

Q: Which protein stability index does the source give for YSGGGYYLDLPGIRQGSAEALRAL here?
A: 1.25

Q: With YSGGGYYLDLPGGRQGSAEALRAL as the variant, how does the protein stability index read?
A: 2.58

Q: Which protein stability index does the source give for YSGGGYYLDLPGMRQGSAEALRAL here?
A: 2.4

Q: With YSGGGYYLDLPGERQGSAEALRAL as the variant, how does the protein stability index read?
A: 1.61

Q: With YSGGGYYLDLPGTRQGSAEALRAL as the variant, how does the protein stability index read?
A: 1.82

Q: For YSGGGYYLDLPGKRQGSAEALRAL, which protein stability index is on record?
A: 1.82

Q: Which protein stability index does the source give for YSGGGYYLDLPVSRQGSAEALRAL here?
A: 2.22

Q: With YSGGGYYLDLPYSRQGSAEALRAL as the variant, how does the protein stability index read?
A: 1.49

Q: With YSGGGYYLDLPPSRQGSAEALRAL as the variant, how does the protein stability index read?
A: 2.05

Q: For YSGGGYYLDLPLSRQGSAEALRAL, which protein stability index is on record?
A: 2.15

Q: For YSGGGYYLDLPRSRQGSAEALRAL, which protein stability index is on record?
A: 1.59

Q: With YSGGGYYLDLPMSRQGSAEALRAL as the variant, how does the protein stability index read?
A: 2.54

Q: Which protein stability index does the source give for YSGGGYYLDLPTSRQGSAEALRAL here?
A: 1.88

Q: Which protein stability index does the source give for YSGGGYYLDLPSSRQGSAEALRAL here?
A: 2.21

Q: Which protein stability index does the source give for YSGGGYYLDLPISRQGSAEALRAL here?
A: 1.55

Q: With YSGGGYYLDLPASRQGSAEALRAL as the variant, how does the protein stability index read?
A: 2.05

Q: Which protein stability index does the source give for YSGGGYYLDLPNSRQGSAEALRAL here?
A: 2.36

Q: For YSGGGYYLDLPESRQGSAEALRAL, which protein stability index is on record?
A: 2

Q: Which protein stability index does the source give for YSGGGYYLDLPKSRQGSAEALRAL here?
A: 1.74

Q: For YSGGGYYLDLPCSRQGSAEALRAL, which protein stability index is on record?
A: 1.24

Q: With YSGGGYYLDLPFSRQGSAEALRAL as the variant, how does the protein stability index read?
A: 1.57

Q: For YSGGGYYLDLPDSRQGSAEALRAL, which protein stability index is on record?
A: 2.09

Q: For YSGGGYYLDLPWSRQGSAEALRAL, which protein stability index is on record?
A: 2.39

Q: Which protein stability index does the source give for YSGGGYYLDLPQSRQGSAEALRAL here?
A: 1.95

Q: With YSGGGYYLDLPHSRQGSAEALRAL as the variant, how does the protein stability index read?
A: 1.96

Q: With YSGQGYYLDLPGSRQGSAEALRAL as the variant, how does the protein stability index read?
A: 2.23

Q: For YSGVGYYLDLPGSRQGSAEALRAL, which protein stability index is on record?
A: 2.22

Q: For YSGWGYYLDLPGSRQGSAEALRAL, which protein stability index is on record?
A: 2.44

Q: For YSGPGYYLDLPGSRQGSAEALRAL, which protein stability index is on record?
A: 2.03

Q: With YSGDGYYLDLPGSRQGSAEALRAL as the variant, how does the protein stability index read?
A: 2.86

Q: With YSGRGYYLDLPGSRQGSAEALRAL as the variant, how does the protein stability index read?
A: 2.48

Q: With YSGHGYYLDLPGSRQGSAEALRAL as the variant, how does the protein stability index read?
A: 2.45

Q: Which protein stability index does the source give for YSGSGYYLDLPGSRQGSAEALRAL here?
A: 2.08

Q: For YSGIGYYLDLPGSRQGSAEALRAL, which protein stability index is on record?
A: 1.78

Q: With YSGYGYYLDLPGSRQGSAEALRAL as the variant, how does the protein stability index read?
A: 1.65

Q: Which protein stability index does the source give for YSGMGYYLDLPGSRQGSAEALRAL here?
A: 2.35

Q: Which protein stability index does the source give for YSGKGYYLDLPGSRQGSAEALRAL here?
A: 2.37

Q: Which protein stability index does the source give for YSGEGYYLDLPGSRQGSAEALRAL here?
A: 1.8

Q: For YSGLGYYLDLPGSRQGSAEALRAL, which protein stability index is on record?
A: 2.15

Q: With YSGFGYYLDLPGSRQGSAEALRAL as the variant, how does the protein stability index read?
A: 2.49

Q: For YSGTGYYLDLPGSRQGSAEALRAL, which protein stability index is on record?
A: 2.53

Q: For YSGCGYYLDLPGSRQGSAEALRAL, which protein stability index is on record?
A: 1.95

Q: With YSGNGYYLDLPGSRQGSAEALRAL as the variant, how does the protein stability index read?
A: 1.67

Q: With YSGGGYYLDLSGSRQGSAEALRAL as the variant, how does the protein stability index read?
A: 1.73

Q: With YSGGGYYLDLTGSRQGSAEALRAL as the variant, how does the protein stability index read?
A: 1.86

Q: For YSGGGYYLDLFGSRQGSAEALRAL, which protein stability index is on record?
A: 2.12

Q: For YSGGGYYLDLRGSRQGSAEALRAL, which protein stability index is on record?
A: 3.15

Q: Which protein stability index does the source give for YSGGGYYLDLAGSRQGSAEALRAL here?
A: 1.89

Q: With YSGGGYYLDLQGSRQGSAEALRAL as the variant, how does the protein stability index read?
A: 2.53

Q: Which protein stability index does the source give for YSGGGYYLDLYGSRQGSAEALRAL here?
A: 2

Q: With YSGGGYYLDLKGSRQGSAEALRAL as the variant, how does the protein stability index read?
A: 1.91

Q: For YSGGGYYLDLNGSRQGSAEALRAL, which protein stability index is on record?
A: 1.97

Q: For YSGGGYYLDLMGSRQGSAEALRAL, which protein stability index is on record?
A: 2.68

Q: With YSGGGYYLDLVGSRQGSAEALRAL as the variant, how does the protein stability index read?
A: 1.85

Q: With YSGGGYYLDLCGSRQGSAEALRAL as the variant, how does the protein stability index read?
A: 1.82

Q: For YSGGGYYLDLLGSRQGSAEALRAL, which protein stability index is on record?
A: 2.54

Q: For YSGGGYYLDLHGSRQGSAEALRAL, which protein stability index is on record?
A: 1.44

Q: For YSGGGYYLDLWGSRQGSAEALRAL, which protein stability index is on record?
A: 2.52

Q: With YSGGGYYLDLEGSRQGSAEALRAL as the variant, how does the protein stability index read?
A: 1.29

Q: For YSGGGYYLDLDGSRQGSAEALRAL, which protein stability index is on record?
A: 1.21

Q: Which protein stability index does the source give for YSGGGYYLDLIGSRQGSAEALRAL here?
A: 1.94

Q: For YSGGGYYLDLGGSRQGSAEALRAL, which protein stability index is on record?
A: 3.43
